B7: C-terminus of INTS3 (INTS3c), residues 560–905 and 915–995 (domain or fragment, human)
chain 1: TVVEEPVDITPYLDQLDESLRDKVLQLQKGSDTEAQCEVMQEIVDQVLEEDFDSEQLSVLASCLQELFKAHFRGEVLPEEITEESLEESVGKPLYLIFRNLCQMQEDNSSFSLLLDLLSELYQKQPKIGYHLLYYLRASKAAAGKMNLYESFAQATQLGDLHTCLMMDMKACQEDDVRLLCHLTPSIYTEFPDETLRSGELLNMIVAVIDSAQLQELVCHVMMGNLVMFRKDSVLNILIQSLDWETFEQYCAWQLFLAHNIPLETIIPILQHLKYKEHPEALSCLLLQLRREKPSEEMVKMVLSRPCHPDDQFTTSILRHWCMKHDELLAEHIKSLLIKNNSLPRK
chain 2: KLAQLTLEQILEHLDNLRLNLTNTKQNFFSQTPILQALQHVQASCDEAHKMKFSDLFSLAEEYEDSSTKPPKSRRKAALSS
notes: Two polypeptides of one protein, co-expressed; residues 906-914 are absent; A selenomethionine form was used for phasing (2.6 Å); the final structure is of native crystals (2.4 Å); copies: 2 + 2

What was measured:
INTS3 full length;hSSB1 = INTS3 full length;hSSB1 (human;human, UniProt Q68E01-2;Q9BQ15 1-1042;1-211, |); experiment: SPR; KD only in Fig. S5d; EMSA: 50 mM NaCl, 20 mM HEPES pH 7.5, 1 mM MgCl2, 0.5 mM EDTA, 0.2 mM DTT, on ice 1 h; SPR: 200 mM NaCl, 40 mM HEPES pH 7.5, 50 uM EDTA, 25 C; settings: protein: recombinant;recombinant; tags: ;; copies: 1;1
Chain of INTS3 full length;hSSB1 (Q9BQ15 whole entry, one chain of several): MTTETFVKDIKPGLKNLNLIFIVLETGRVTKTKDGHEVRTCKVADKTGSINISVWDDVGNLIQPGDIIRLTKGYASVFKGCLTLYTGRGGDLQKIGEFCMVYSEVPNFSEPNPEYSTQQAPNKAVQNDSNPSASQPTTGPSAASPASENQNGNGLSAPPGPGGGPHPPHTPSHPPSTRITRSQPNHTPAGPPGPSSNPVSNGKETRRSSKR

INTS3(1-995);hSSB1 [1] = target: T1, INTS3(1-995);hSSB1 (human;human, UniProt Q68E01-2;Q9BQ15 1-995;1-211, |); experiment: SPR; KD only in Fig. S5c; EMSA: 50 mM NaCl, 20 mM HEPES pH 7.5, 1 mM MgCl2, 0.5 mM EDTA, 0.2 mM DTT, on ice 1 h; SPR: 200 mM NaCl, 40 mM HEPES pH 7.5, 50 uM EDTA, 25 C; settings: protein: recombinant;recombinant; tags: ;; chain copies: 2;2
T1 sequence (Q9BQ15 whole entry, one chain of several): as above

[2] = target: T2, INTS3(1-500) (INTS3N);hSSB1 (human;human, UniProt Q68E01-2;Q9BQ15 1-500;1-211, |); experiment: SPR; comparable to hSSB1 alone; KD only in Fig. S5b; EMSA: 50 mM NaCl, 20 mM HEPES pH 7.5, 1 mM MgCl2, 0.5 mM EDTA, 0.2 mM DTT, on ice 1 h; SPR: 200 mM NaCl, 40 mM HEPES pH 7.5, 50 uM EDTA, 25 C; settings: protein: recombinant;recombinant; tags: ;; copies: 1;1
T2 sequence (Q9BQ15 whole entry, one chain of several): as above

hSSB1 [3] = target: T3, hSSB1 (human, UniProt Q9BQ15 1-211); experiment: SPR; hSSB1 immobilized; comparable to INTS3(1-500)/hSSB1; KD only in Fig. S5a; EMSA: 50 mM NaCl, 20 mM HEPES pH 7.5, 1 mM MgCl2, 0.5 mM EDTA, 0.2 mM DTT, on ice 1 h; SPR: 200 mM NaCl, 40 mM HEPES pH 7.5, 50 uM EDTA, 25 C; settings: protein: recombinant
T3 sequence (Q9BQ15 whole entry): as the sequence (Q9BQ15 whole entry, one chain of several) above

INTS3c = INTS3c (human, UniProt Q68E01-2;Q68E01-2 560-905;915-995); experiment: EMSA; INTS3c alone unable to bind ssDNA; method inferred; EMSA: 50 mM NaCl, 20 mM HEPES pH 7.5, 1 mM MgCl2, 0.5 mM EDTA, 0.2 mM DTT, on ice 1 h; SPR: 200 mM NaCl, 40 mM HEPES pH 7.5, 50 uM EDTA, 25 C; settings: protein: recombinant; tags: GST removed
Chain of INTS3c (Q68E01 916-996, chain 2 of 2, one chain of several): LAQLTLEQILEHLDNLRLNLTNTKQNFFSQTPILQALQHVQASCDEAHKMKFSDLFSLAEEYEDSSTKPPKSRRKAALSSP

INTS3(1-995);hSSB1 [4] = target: T1, INTS3(1-995);hSSB1; experiment: EMSA; 1 mM MgCl2; EMSA: 50 mM NaCl, 20 mM HEPES pH 7.5, 1 mM MgCl2, 0.5 mM EDTA, 0.2 mM DTT, on ice 1 h; SPR: 200 mM NaCl, 40 mM HEPES pH 7.5, 50 uM EDTA, 25 C; settings: protein: recombinant;recombinant; tags: ;; chain copies: 2;2; label: 6-FAM (printed 6'-carboxy-fluorescein)
[5] = target: INTS3(1-995);hSSB1;INTS6c (human;human;human, UniProt Q68E01-2;Q9BQ15;Q9UL03 1-995;1-211;800-887, ||); experiment: EMSA; 1 mM MgCl2; INTS6c 1:1, no effect on binding; EMSA: 50 mM NaCl, 20 mM HEPES pH 7.5, 1 mM MgCl2, 0.5 mM EDTA, 0.2 mM DTT, on ice 1 h; SPR: 200 mM NaCl, 40 mM HEPES pH 7.5, 50 uM EDTA, 25 C; settings: protein: recombinant;recombinant;recombinant; tags: ;;GST removed; chain copies: 2;2;2; label: 6-FAM (printed 6'-carboxy-fluorescein)
Chain of INTS3(1-995);hSSB1;INTS6c (Q9BQ15 whole entry, one chain of several): as the sequence (Q9BQ15 whole entry, one chain of several) above

[6] = target: T2, INTS3(1-500) (INTS3N);hSSB1; experiment: EMSA; comparable affinities among the three; EMSA: 50 mM NaCl, 20 mM HEPES pH 7.5, 1 mM MgCl2, 0.5 mM EDTA, 0.2 mM DTT, on ice 1 h; SPR: 200 mM NaCl, 40 mM HEPES pH 7.5, 50 uM EDTA, 25 C; settings: protein: recombinant;recombinant; tags: ;; copies: 1;1
INTS3(1-995);hSSB1 [7] = target: T1, INTS3(1-995);hSSB1; experiment: as above; settings: protein: recombinant;recombinant; tags: ;; chain copies: 2;2
hSSB1 [8] = target: T3, hSSB1; experiment: as above; settings: protein: recombinant
[9] = target: B7; experiment: crystal structure; INTS3c/INTS6c complex from purified parts, crystallised in 1.7 M ammonium citrate tribasic pH 7.0, 4% v/v pentaerythritol ethoxylate; SAD on selenomethionine INTS3c, native data to 2.4 Å; settings: both partners purified
[10] = target: the molecule itself; experiment: SEC; analytical size-exclusion chromatography of co-expressed and purified INTS3-hSSB1 complexes (Supplementary Fig. S2)
[11] = target: the molecule itself; experiment: crystal structure; INTS3c/INTS6c complex from purified parts, crystallised in 1.7 M ammonium citrate tribasic pH 7.0, 4% v/v pentaerythritol ethoxylate; SAD on selenomethionine INTS3c, native data to 2.4 Å

B1: dT48 (ssDNA)
DNA: TTTTTTTTTTTTTTTTTTTTTTTTTTTTTTTTTTTTTTTTTTTTTTTT
INTS3 full length;hSSB1
  binding result: binds
INTS3(1-995);hSSB1 [1]
  binding result: binds
[2]
  binding result: binds
hSSB1 [3]
  binding result: binds

B2: ssDNA of Fig. S4d (ssDNA)
DNA: TTTTTTTTTTTTTTTTTTTTTTTTTTTTTTTTTTTTTTTTTTTTTTTT
INTS3c
  binding result: no binding

B3: dT48 (FAM) (ssDNA)
DNA: TTTTTTTTTTTTTTTTTTTTTTTTTTTTTTTTTTTTTTTTTTTTTTTT
INTS3(1-995);hSSB1 [4]
  binding result: binds
[5]
  binding result: binds

B4: dT12 (ssDNA)
DNA: TTTTTTTTTTTT
[6]
  binding result: binds
INTS3(1-995);hSSB1 [7]
  binding result: binds
hSSB1 [8]
  binding result: binds

B5: C-terminus of INTS6 (INTS6c), residues 800–887 (domain or fragment, human, UniProt Q9UL03 800-887, looked up)
chain: MHCRSHEEVNTELKAQIMKEIRKPGRKYERIFTLLKHVQGSLQTRLIFLQNVIKEASRFKKRMLIEQLENFLDEIHRRANQINHINSN
notes: integrator complex subunit 6 (INTS6), human, residues 800-887; Cloned into pGEX-6p-1
[9]
  stoichiometry N: 2 INTS3c:INTS6c

B6: INTS3(1−995) (domain or fragment, human, UniProt Q68E01 1-995, looked up)
chain: MELQKGKGAAAAAAASGAAGGGGGGAGAGAPGGGRLLLSTSLDAKDELEERLERCMSIVTSMTAGVSEREANDALNAYVCKGLPQHEEICLGLFTLILTEPAQAQKCYRDLALVSRDGMNIVLNKINQILMEKYLKLQDTCRTQLVWLVRELVKSGVLGADGVCMTFMKQIAGGGDVTAKNIWLAESVLDILTEQREWVLKSSILIAMAVYTYLRLIVDHHGTAQLQALRQKEVDFCISLLRERFMECLMIGRDLVRLLQNVARIPEFELLWKDIIHNPQALSPQFTGILQLLQSRTSRKFLACRLTPDMETKLLFMTSRVRFGQQKRYQDWFQRQYLSTPDSQSLRCDLIRYICGVVHPSNEVLSSDILPRWAIIGWLLTTCTSNVAASNAKLALFYDWLFFSPDKDSIMNIEPAILVMHHSMKPHPAITATLLDFMCRIIPNFYPPLEGHVRQGVFSSLNHIVEKRVLAHLAPLFDNPKLDKELRAMLREKFPEFCSSPSPPVEVKIEEPVSMEMDNHMSDKDESCYDNAEAAFSDDEEDLNSKGKKREFRFHPIKETVVEEPVDITPYLDQLDESLRDKVLQLQKGSDTEAQCEVMQEIVDQVLEEDFDSEQLSVLASCLQELFKAHFRGEVLPEEITEESLEESVGKPLYLIFRNLCQMQEDNSSFSLLLDLLSELYQKQPKIGYHLLYYLRASKAAAGKMNLYESFAQATQLGDLHTCLMMDMKACQEDDVRLLCHLTPSIYTEFPDETLRSGELLNMIVAVIDSAQLQELVCHVMMGNLVMFRKDSVLNILIQSLDWETFEQYCAWQLFLAHNIPLETIIPILQHLKYKEHPEALSCLLLQLRREKPSEEMVKMVLSRPCHPDDQFTTSILRHWCMKHDELLAEHIKSLLIKNNSLPRKRQSLRSSSSKLAQLTLEQILEHLDNLRLNLTNTKQNFFSQTPILQALQHVQASCDEAHKMKFSDLFSLAEEYEDSSTKPPKSRRKAALSS
notes: The complex with hSSB1 was held on an NTA chip for SPR with DNA, so one of its chains may carry a His tag; source: co-expressed with hSSB1 and purified
[10]
  stoichiometry N: 2

## B7
[11]
  stoichiometry N: 2

Source: article PMC8368002, “Crystal structure of the INTS3/INTS6 complex reveals the functional importance of INTS3 dimerization in DSB repair” (Cell Discovery, 2020)
